# Measured values as given in US20200165325A1.
# What was measured:
# [1] = molecular target: Env (gp120) of HIV-1 strain 0330.v4.c3 (HIV-1)
# [2] = molecular target: Env (gp120) of HIV-1 strain 0815.v3.c3 (HIV-1)
# [3] = molecular target: Env (gp120) of HIV-1 strain 1006_11_C3_1601 (HIV-1)
# [4] = molecular target: Env (gp120) of HIV-1 strain 1056_10_TA11_1826 (HIV-1)
# [5] = molecular target: Env (gp120) of HIV-1 strain 211-9 (HIV-1)
# [6] = molecular target: Env (gp120) of HIV-1 strain 231966.c02 (HIV-1)
# [7] = molecular target: Env (gp120) of HIV-1 strain 3103.v3.c10 (HIV-1)
# [8] = molecular target: Env (gp120) of HIV-1 strain 3301.v1.c24 (HIV-1)
# [9] = molecular target: Env (gp120) of HIV-1 strain 3415.v1.c1 (HIV-1)
# [10] = molecular target: Env (gp120) of HIV-1 strain 3718.v3.c11 (HIV-1)
# [11] = molecular target: Env (gp120) of HIV-1 strain 3817.v2.c59 (HIV-1)
# [12] = molecular target: Env (gp120) of HIV-1 strain 620345.c01 (HIV-1)
# [13] = molecular target: Env (gp120) of HIV-1 strain 62357_14_D3_4589 (HIV-1)
# [14] = molecular target: Env (gp120) of HIV-1 strain 6480.v4.c25 (HIV-1)
# [15] = molecular target: Env (gp120) of HIV-1 strain 6540.v4.c1 (HIV-1)
# [16] = molecular target: Env (gp120) of HIV-1 strain 6545.v4.c1 (HIV-1)
# [17] = molecular target: Env (gp120) of HIV-1 strain 6811.v7.c18 (HIV-1)
# [18] = molecular target: Env (gp120) of HIV-1 strain 703357.C02 (HIV-1)
# [19] = molecular target: Env (gp120) of HIV-1 strain 928-28 (HIV-1)
# [20] = molecular target: Env (gp120) of HIV-1 strain CAAN5342.A2 (HIV-1)
# [21] = molecular target: Env (gp120) of HIV-1 strain CNE17 (HIV-1)
# [22] = molecular target: Env (gp120) of HIV-1 strain CNE20 (HIV-1)
# [23] = molecular target: Env (gp120) of HIV-1 strain CNE21 (HIV-1)
# [24] = molecular target: Env (gp120) of HIV-1 strain CNE30 (HIV-1)
# [25] = molecular target: Env (gp120) of HIV-1 strain Ce0393_C3 (HIV-1)
# [26] = molecular target: Env (gp120) of HIV-1 strain Ce0682_E4 (HIV-1)
# [27] = molecular target: Env (gp120) of HIV-1 strain Ce1176_A3 (HIV-1)
# [28] = molecular target: Env (gp120) of HIV-1 strain Ce2010_F5 (HIV-1)
# [29] = molecular target: Env (gp120) of HIV-1 strain Ce2060_G9 (HIV-1)
# [30] = molecular target: Env (gp120) of HIV-1 strain Ce703010054_2A2 (HIV-1)
# [31] = molecular target: Env (gp120) of HIV-1 strain Du156.12 (HIV-1)
# [32] = molecular target: Env (gp120) of HIV-1 strain HIV-16845-2.22 (HIV-1)
# [33] = molecular target: Env (gp120) of HIV-1 strain P1981_C5_3 (HIV-1)
# [34] = molecular target: Env (gp120) of HIV-1 strain PVO.4 (HIV-1)
# [35] = molecular target: Env (gp120) of HIV-1 strain Q461.e2 (HIV-1)
# [36] = molecular target: Env (gp120) of HIV-1 strain Q769.d22 (HIV-1)
# [37] = molecular target: Env (gp120) of HIV-1 strain Q842.d12 (HIV-1)
# [38] = molecular target: Env (gp120) of HIV-1 strain QH0692.42 (HIV-1)
# [39] = molecular target: Env (gp120) of HIV-1 strain R1166.c01 (HIV-1)
# [40] = molecular target: Env (gp120) of HIV-1 strain T257-31 (HIV-1)
# [41] = molecular target: Env (gp120) of HIV-1 strain T278-50 (HIV-1)
# [42] = molecular target: Env (gp120) of HIV-1 strain THRO4156.18 (HIV-1)
# [43] = molecular target: Env (gp120) of HIV-1 strain TRO.11 (HIV-1)
# [44] = molecular target: Env (gp120) of HIV-1 strain X1193_c1 (HIV-1)
# [45] = molecular target: Env (gp120) of HIV-1 strain X1254_c3 (HIV-1)
# [46] = molecular target: Env (gp120) of HIV-1 strain X2131_C1_B5 (HIV-1)
# [47] = molecular target: Env (gp120) of HIV-1 strain ZM214M.PL15 (HIV-1)
# [48] = molecular target: Env (gp120) of HIV-1 strain ZM233M.PB6 (HIV-1)
# [49] = molecular target: Env (gp120) of HIV-1 strain ZM249M.PL1 (HIV-1)
# [50] = molecular target: Env (gp120) of HIV-1 strain ZM53M.PB12 (HIV-1)
substance,measurement,setting,value
NIH45-46^G54Y IgG (antibody),neutralization IC50,[1],0.03 µg/mL
same,neutralization IC50,[2],< 0.001 µg/mL
same,neutralization IC50,[3],0.005 µg/mL
same,neutralization IC50,[4],0.044 µg/mL
same,neutralization IC50,[5],> 50 µg/mL
same,neutralization IC50,[6],0.06 µg/mL
same,neutralization IC50,[7],0.3 µg/mL
same,neutralization IC50,[8],0.003 µg/mL
same,neutralization IC50,[9],< 0.001 µg/mL
same,neutralization IC50,[10],0.3 µg/mL
same,neutralization IC50,[11],> 50 µg/mL
same,neutralization IC50,[12],> 50 µg/mL
same,neutralization IC50,[13],0.03 µg/mL
same,neutralization IC50,[14],0.018 µg/mL
same,neutralization IC50,[15],> 50 µg/mL
same,neutralization IC50,[16],> 50 µg/mL
same,neutralization IC50,[17],0.011 µg/mL
same,neutralization IC50,[18],5.6 µg/mL
same,neutralization IC50,[19],0.12 µg/mL
same,neutralization IC50,[20],0.1 µg/mL
same,neutralization IC50,[21],0.073 µg/mL
same,neutralization IC50,[22],0.33 µg/mL
same,neutralization IC50,[23],0.07 µg/mL
same,neutralization IC50,[24],0.099 µg/mL
same,neutralization IC50,[25],0.036 µg/mL
same,neutralization IC50,[26],0.017 µg/mL
same,neutralization IC50,[27],0.21 µg/mL
same,neutralization IC50,[28],0.049 µg/mL
same,neutralization IC50,[29],0.021 µg/mL
same,neutralization IC50,[30],0.022 µg/mL
same,neutralization IC50,[31],0.007 µg/mL
same,neutralization IC50,[32],0.59 µg/mL
same,neutralization IC50,[33],0.04 µg/mL
same,neutralization IC50,[34],0.06 µg/mL
same,neutralization IC50,[35],0.023 µg/mL
same,neutralization IC50,[36],0.007 µg/mL
same,neutralization IC50,[37],0.015 µg/mL
same,neutralization IC50,[38],0.52 µg/mL
same,neutralization IC50,[39],0.24 µg/mL
same,neutralization IC50,[40],0.18 µg/mL
same,neutralization IC50,[41],> 50 µg/mL
same,neutralization IC50,[42],0.66 µg/mL
same,neutralization IC50,[43],0.08 µg/mL
same,neutralization IC50,[44],0.006 µg/mL
same,neutralization IC50,[45],0.013 µg/mL
same,neutralization IC50,[46],0.1 µg/mL
same,neutralization IC50,[47],0.06 µg/mL
same,neutralization IC50,[48],0.16 µg/mL
same,neutralization IC50,[49],0.003 µg/mL
same,neutralization IC50,[50],0.06 µg/mL
NIH45-46^G54W IgG (antibody),neutralization IC50,[1],0.03 µg/mL
same,neutralization IC50,[2],< 0.001 µg/mL
same,neutralization IC50,[3],< 0.001 µg/mL
same,neutralization IC50,[4],0.024 µg/mL
same,neutralization IC50,[5],16.4 µg/mL
same,neutralization IC50,[6],0.02 µg/mL
same,neutralization IC50,[7],0.2 µg/mL
same,neutralization IC50,[8],< 0.001 µg/mL
same,neutralization IC50,[9],< 0.001 µg/mL
same,neutralization IC50,[10],0.01 µg/mL
same,neutralization IC50,[11],> 50 µg/mL
same,neutralization IC50,[12],> 50 µg/mL
same,neutralization IC50,[13],0.02 µg/mL
same,neutralization IC50,[14],0.004 µg/mL
same,neutralization IC50,[15],> 50 µg/mL
same,neutralization IC50,[16],18.9 µg/mL
same,neutralization IC50,[17],< 0.001 µg/mL
same,neutralization IC50,[18],3.43 µg/mL
same,neutralization IC50,[19],0.06 µg/mL
same,neutralization IC50,[20],0.07 µg/mL
same,neutralization IC50,[21],0.036 µg/mL
same,neutralization IC50,[22],0.04 µg/mL
same,neutralization IC50,[23],0.03 µg/mL
same,neutralization IC50,[24],0.052 µg/mL
same,neutralization IC50,[25],0.013 µg/mL
same,neutralization IC50,[26],0.01 µg/mL
same,neutralization IC50,[27],0.16 µg/mL
same,neutralization IC50,[28],0.038 µg/mL
same,neutralization IC50,[29],0.005 µg/mL
same,neutralization IC50,[30],0.027 µg/mL
same,neutralization IC50,[31],< 0.001 µg/mL
same,neutralization IC50,[32],0.45 µg/mL
same,neutralization IC50,[33],0.02 µg/mL
same,neutralization IC50,[34],0.05 µg/mL
same,neutralization IC50,[35],0.009 µg/mL
same,neutralization IC50,[36],< 0.001 µg/mL
same,neutralization IC50,[37],0.005 µg/mL
same,neutralization IC50,[38],0.37 µg/mL
same,neutralization IC50,[39],0.13 µg/mL
same,neutralization IC50,[40],0.13 µg/mL
same,neutralization IC50,[41],> 50 µg/mL
same,neutralization IC50,[42],0.54 µg/mL
same,neutralization IC50,[43],0.04 µg/mL
same,neutralization IC50,[44],< 0.001 µg/mL
same,neutralization IC50,[45],0.002 µg/mL
same,neutralization IC50,[46],0.05 µg/mL
same,neutralization IC50,[47],0.03 µg/mL
same,neutralization IC50,[48],0.02 µg/mL
same,neutralization IC50,[49],0.002 µg/mL
same,neutralization IC50,[50],0.04 µg/mL
